Biological target: human CD3 (human, UniProt P07766 23-207; P04234 22-171; P09693 23-182)
Assay: cell-based or functional assay

Sequence of human CD3 (P07766 23-207, chain 1 of 3): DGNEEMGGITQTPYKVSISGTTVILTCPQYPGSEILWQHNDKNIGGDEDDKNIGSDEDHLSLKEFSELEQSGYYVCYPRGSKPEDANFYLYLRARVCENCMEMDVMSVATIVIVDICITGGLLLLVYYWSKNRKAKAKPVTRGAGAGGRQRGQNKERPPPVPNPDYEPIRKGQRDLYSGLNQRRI
Sequence of human CD3 (P04234 22-171, chain 2 of 3): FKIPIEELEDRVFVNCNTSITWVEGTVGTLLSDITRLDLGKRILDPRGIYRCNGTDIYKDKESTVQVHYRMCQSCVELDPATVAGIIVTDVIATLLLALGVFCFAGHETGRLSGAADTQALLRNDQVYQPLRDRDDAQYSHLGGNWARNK
Sequence of human CD3 (P09693 23-182, chain 3 of 3): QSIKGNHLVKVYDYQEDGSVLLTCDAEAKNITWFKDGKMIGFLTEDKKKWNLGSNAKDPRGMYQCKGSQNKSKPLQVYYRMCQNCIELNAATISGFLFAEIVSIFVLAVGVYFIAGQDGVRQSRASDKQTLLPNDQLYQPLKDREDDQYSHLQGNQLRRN

Binder	CD4 EC50 (nM); CD69/CD25 on human T cells, plate-coated antibody	CD8 EC50 (nM); CD69/CD25 on human T cells, plate-coated antibody
mAb 77 (antibody, V domains shown) VH: EVQLVESGGGLVQPGGSLRLSCAASGFTFSNYWMSWVRQAPGKGLEWVANIKQDGSEKYYVDSVRGRFTISRDNAKKSLYLQMNSLRAEDTAVYYCARDNSNYAYWYFDIWGRGTLVTVSS VL: DIQMTQSPSTLSVSVGDRVTITCRASQSIRKWLAWYQQKPGKAPKLLIFKASSLESGVPSRFSGSGSGTEFTLTISSLQPDDFATYYCQQYDTYSRTFGQGTKVEIK	12.9 nM	13.1 nM
mAb 78 (antibody, V domains shown) VH: EVQLVESGGGLVQPGGSLRLSCAASGFTFSSYWMSWVRQAPGKGLEWVANIKQDGSEKYYVDSVKGRFTISRDNAKNSLYLQMNSLRAEDTAVYYCARDNSPSFYWYFDLWGRGTLVTVSS VL: DIQMTQSPSTLSASVGDRVTITCRASQSLSRWLAWYQQKPGKAPKLLIYKASSLESGVPSRFSGSGSGTEFTLTISSLQPDDFATYYCQQYYTYSRTFGQGTKVEIK	12.2 nM	12.2 nM
mAb 106 (antibody, V domains shown) VH: QVQLVESGGGVVQPGRSLRLSCAASGFTFRSYGMHWVRQAPGKGLEWVAIIWYNGNKKDYVDSVKGRFTISRDNSKNTLYLQMNSLRAEDTALYYCARGPGYNWFDPWGQGTLVTVSS VL: DIQMTQSPPSLSASVGDRVTITCRASQRISSYLNWYQQKPGKAPKLLIYAASSLQSGVPSRFSGSGSGTDFTLTISSLQPEDFATYYCQQSDSFPLTFGGGTKVEII	13.6 nM	12.9 nM
mAb 110 (antibody, V domains shown) VH: QVQLVESGGGVVQPGRSLRLSCAASGFTFRSYGMHWVRQAPGKGLEWVAIIWYNGNKKDYVDSVKGRFTISRDNSKNMLYLQMNSLRAEDTALYYCARGPGYNWFDPWGQGTLVTVSS VL: DIQMTQSPPSLSASVGDRVTITCRASQRISSYLNWYQQRPGKAPKLLIYAASSLQSGVPSRFSGSGSGTDFTLTISSLQPEDFATYYCQQTDSFPLTFGGGTKVEII	13.5 nM	15.3 nM
mAb 94 (antibody, V domains shown) VH: QVHLVESGGGVVQPGRSLRLSCSASGFTFSGYGMHWVRQAPGKGLEWVALIYFDGRNKYYADSVKGRFTISRDNSKNTLYLQMNSLRAEDTAVYYCARGGGYNWFDPWGQGTLVTVSS VL: DIQMTQSPSSLSASVGDRVTITCRASQSISNYLNWYQQKPGKAPKLLIYLASSLQSGVPSRFSGSGSGTDFTLTINSLQPEDFASYYCQLSYSSPFTFGPGTKVDVN	11.7 nM	12.4 nM
mAb 96 (antibody, V domains shown) VH: QAHLVESGGGVVQPGRSLRLSCSASGFTFSGYGMHWVRQAPGKGLEWVSLIYFDGRNKYYADSVKGRFTISRDNSKNTLYLQMNSLRAEDTAVYYCARGGGYNWFDPWGQGTLVTVSS VL: DIQMTQSPSSLSASVGDRVTITCRASQSINNYLSWYQQKPGKAPKLLIYLASNLQSGVPSRFSGNGSGTDFTLTISSLQPEDFATYYCQLSYRSPFTFGPGTKVDVK	17.2 nM	19.5 nM
mAb 95 (antibody, V domains shown) VH: QAHLVESGGGVVQPGRSLRLSCSASGFTFSGYGMHWVRQAPGKGLEWVALIYFDGRNKYYADSVKGRFTISRDNSKNTLYLQMNSLRAEDTAVYYCARGGGYNWFDPWGQGTLVTVSS VL: DIQMTQSPSSLSASVGDRVTITCRASQSINNYLSWYQQKPGKAPKLLIYLASNLQSGVPSRFSGSGSGTDFTLTISSLQPEDFATYYCQLSYRSPFTFGPGTKVDVK	14.4 nM	15.5 nM
mAb 98 (antibody, V domains shown) VH: QVHLVESGGDVVQPGRSLRLSCSASGFTFSGYGMHWVRQAPGKGLEWVALIYFDGRNKYYADSVKGRFTISRDNSKNTLYLQMNSLRAEDTAVYYCARGGGYNWFDPWGQGTLVTVSS VL: DIQMTQSPSSLSASVGDRVTITCRASQSINNYLNWYQQKPGKAPKLLIYLASSLQSGVPSRFSGSGSGTDFTLTISSLQPEDLATYYCQLSYSSPFTFGPGTKVDVK	11.3 nM	12 nM
mAb 99 (antibody, V domains shown) VH: QGQLVESGGGVVQPGRSLRLSCAASGFTFRGFGMHWVRQAPGKGLEWVAIIYYDGKNKYYADSVKGRFTISRDNSKNTLYLQMNSLRAEDTAVYYCAKGGGYNWFDPWGQGTLVTVSS VL: DIQMTQSPSSLSASVGDRVTITCRASQSISTYLNWYQQKPGKAPKLLIYSASSLQSGVPSRFSGSGSGTDFTLTISNLQPEDFAIYYCQRSYSPPFTFGPGTKLDIR	11.7 nM	12.1 nM
mAb 100 (antibody, V domains shown) VH: QVQLVESGGGVVQPGRSLRLSCVASGFTFRGYGMHWVRQAPGKGLEWVAIIYYDGKNKYYADSVKGRFTISRDNSKNTLYLQMNSLRVEDTALYYCARGGGYNWFDPWGQGTLVTVSS VL: DIQMTQSPSSLSASVGDRVTITCRASQSISTYLNWYQQKPGKAPKLLIYTASSLQSGVPSRFSGSGSGTVFTLTISSLQPEDFAIYYCQRSYSPPFTFGPGTRLDIK	13.1 nM	13.3 nM
mAb 97 (antibody, V domains shown) VH: QGQLVESGGGVVQPGRSLRLSCAASGFTFRGYGMHWVRQAPGKGLEWVAIIYYDGKNKYYADSVKGRFTISRDNSKNTLYLQMNNLRVEDTAVYYCARGGGYNWFDPWGQGTLVTVSS VL: DIQMTQSPSSLSASIGDRVTITCRASQSISNYLNWYQQKPGKAPKLLIYSASSLQSGVPSRFSGSGSGTDFTLTISNLQPEDFAIYYCQRSYSPPFTFGPGTKLDIR	12.6 nM	13.9 nM
mAb 101 (antibody, V domains shown) VH: QGQLVESGGGVVQPGRSLRLSCAASGFTFRGFGMHWVRQAPGKGLEWVAIIYYDGKNKYYADSVKGRFTISRDNSKNMLYLQMNSLRAEDTAVYYCAKGGGYNWFDPWGQGTLVTVSS VL: DIQMTQSPSSLSASVGDRVTITCRASQSISTYLNWYQQKPGKAPKLLIYSASSLQSGVPSRFSGSGSGTDFTLTISNLQPEDFAIYYCQRSYSPPFTFGPGTKLDIR	12.9 nM	14.5 nM
mAb 44 (antibody, V domains shown) VH: QAQLVQSGSELKKPGASVKVSCKASGYTFTRHAMNWVRQAPGQGLEWMGWINTNTGNPTYAQGFTGRFVFSLDTSVSTAYLKISSLKAEDTAVYYCVREGDYDFWSGFFNFDYWGQGTLVTVSS VL: DIQMTQSPSSLSASVGDRVTITCRASQGIRNDLGWFQQKPGKAPTRLIYAASSLQSGVPSRFSGSGSGAEFTLTISSLQPEDFATYYCLQHNSYPRTFGQGTKVEIK	20.4 nM	20.9 nM
mAb 102 (antibody, V domains shown) VH: QVQLVESGGGVVQPGRSLRLSCAASGFSFRSYGMHWVRQAPGKGLEWVSVISYDGGNKYYADSVKGRFTISRDNSKNTLFLQMKSLRAEDTALYYCAKGGGTYWRGLFEYWGQGTLVTVSS VL: DIQLTQSPSFLSASVGDRVTITCRASQGISSYLAWYQKKPGKAPKLLIYAASTLHSGVPSRFSGGGSGTAFTLTISSLQPEDFATYYCQQLNNYPFTFGPGTKVDIK	15.6 nM	16.9 nM
mAb 79 (antibody, V domains shown) VH: QVQLVQSGAEVKKPGASVKVSCKASGYIVTGYYMHWVRQAPGHGLEWMGWINPNSGGTNFAQNFQGRVTMTRDTSISTFYMDLNRLTSDDTAVYYCARGGAPVSYWFFDLWGRGTLVTVSS VL: DIQMTQSPSSLSASVGDRVTITCRASQNINSYLNWYHQKPGKAPKVLIYNTSTLKSGVPSRFSGSGSGTYFTLTISSLQPEDFATFYCQQSHSTPFTFGPGTKVDIK	10.4 nM	11 nM
mAb 85 (antibody, V domains shown) VH: QVQLVQSGAEVKKPGASVKVSCKASGYTVTGYYMHWVRQAPGQGLEWMGWINPNSGGTNFAQNFQGRVTMTRDTSISTFYMDLNRLRSDDTAVYYCARGGAPVSYWFFDLWGRGTLVTVSS VL: DIQMTQSPSSLSASVGDRVTITCRASQSISRYLNWYQQKPGKAPKVLIYNTSSLKSGVPSRFSGSGSGTDFTLTISSLQPEDFGTFYCQQSHSTPFTFGPGTKVDIK	9.43 nM	10.3 nM
mAb 111 (antibody, V domains shown) VH: EVQLVESGGVLVKTGGSLRLSCVASGFSFKKAWMNWVRQAPGKGLEWVGRIKRNSDGGAADYAAPVKDRFTLSRDDSKNTLYLQMNSLKTEDTAVYYCTTLDSSSWYVGYYYMDVWGKGTTVTVSS VL: DIHMTQSPSSVSASLGDRVTFTCRASQNINNWLAWYQQKPGKAPKLLIYTASSLQSGVPSRFSGSGSGTDFTLTISSLQPDDFATYYCQQAHSLPITFGQGTRLGIK	6.96 nM	9.42 nM
mAb 112 (antibody, V domains shown) VH: EVQLVESGGGLVKTGGSHRLSCVASGFSFKKAWMNWVRQAPGKGLEWVGRIKRNSDGGTTDYAAPVKGRFILSRDDSKNTLYLQMNSLKTEDTAVYYCTTLDSSSWYVGYYYMDVWGKGTTVTVSS VL: DIQMTQSPSSVSASVGDRVTITCRASQDINNWLAWYQQKPGKAPKILIYTASNLQSGVPSRFSGSGSGTDFTLTISSLQPEDFATYFCQQAHSLPITFGQGTRLEIK	6.48 nM	6.56 nM
